Source: paper PMC11857070

Target: Lectin-like protein 1 (Llp1), residues 23-241, without the signal peptide (Ustilago maydis)
Experiment: SEC-MALS; Superdex 200 Increase 10/300, HEPES buffer, pH 7.5

“Lectin-like protein 1 (Llp1), residues 23-241, without the signal peptide (from UniProt A0A0D1E6R1 23-241) (domain or fragment)” gave a stoichiometry N of 4.
